Assay [1] addresses β2 adrenergic receptor, the receptor part of the β2AR-Spep SPASM sensor (UniProt P07550). Nature of the assay: FRET or BRET; steady-state ΔFRET of the β2AR-Spep SPASM sensor in native HEK293T membranes; 100 µM clenbuterol (partial agonist) against buffer, 5 min, 25 °C, FRET buffer; both partners on one chain.
Assay [2] has the same target. Nature of the assay: FRET or BRET; stopped-flow decay of the FRET ratio (mCit/mCer) of the β2AR-Spep SPASM sensor in native HEK293T membranes, preincubated with 100 µM isoproterenol and quenched with 10 µM Nb6B9; FRET buffer; triple exponential fit with one decay constrained to the decay without Nb6B9; both partners on one chain.
For assay [3] the target is unchanged. The assay is described as follows: FRET or BRET; steady-state ΔFRET of the β2AR-Spep SPASM sensor in native HEK293T membranes; 100 µM clenbuterol with 30 µM soluble Qpep (Gαq peptide), 5 min, 25 °C, FRET buffer; both partners on one chain.
Assay [4] has the same target. Nature of the assay: FRET or BRET; steady-state ΔFRET of the β2AR-Spep SPASM sensor in native HEK293T membranes; 100 µM isoproterenol with 30 µM soluble Qpep (Gαq peptide), 5 min, 25 °C, FRET buffer; both partners on one chain.
For assay [5], the target named is N-terminally biotinylated Gαs-peptide (bio-Spep). The assay is described as follows: pull-down; affinity sequestration: β2AR-mCer native membranes with 100 µM isoproterenol and 30 µM bio-Spep, 5 min at room temperature, then streptavidin Dynabeads for 5 min; fraction bound = 1 - fraction of mCerulean counts in the supernatant; FRET buffer + 0.1 mg/mL BSA.
The target is the same in assay [6]. The assay is described as follows: pull-down; affinity sequestration as above, with 10 µM Qpep (Gαq peptide) added to the 30 µM bio-Spep; 100 µM isoproterenol; streptavidin Dynabeads; FRET buffer + 0.1 mg/mL BSA.

Regarding “Gαs-peptide (Spep), the 27 amino acid Gα C-terminal peptide of the β2AR-Spep SPASM sensor”, the fold weaker interaction (ΔFRET) with clenbuterol than with isoproterenol in assay [1] is 6 fold. In assay [2], the koff, strong interaction state (slow decay) amounted to 0.006 s⁻¹ and the koff, weak interaction state (fast decay) is 0.3 s⁻¹. In assay [3], the fold increase of the interaction (ΔFRET) with Qpep against without, clenbuterol came to 5 fold. This substance also showed a fold increase of the interaction (ΔFRET) with Qpep against without, isoproterenol in assay [4] of 2 fold.
As to “β2AR-mCerulean (from UniProt P07550 1-413) (receptor)”, the fraction of receptor bound in assay [5] worked out at 5%. Further, the fraction of receptor bound, with 10 µM Qpep in assay [6] was determined as 17%.

For the origin of these results see PMC8904551.
